Assay results taken from the DeepSol protein solubility set.

Assay: soluble on expression in E. coli; label from the status in PepcDB or PDB records

| Sequence | soluble on expression in E. coli |
| --- | --- |
| MNSRSTAEITDYLNEKITKKDALELFSLPIHAVGRIADEIRKVKCGDLVTFVNDTNINYTNICLSKCRFCAFYAREKGYVLSHEEILRKVGYAVKMGATQIMLQGGMNPDLGLEWFEELFRKIKARFSSVHIHSLSPPEIVFLAKLERSSIREVLDRLKAAGLDSLPGGGAEILVDSVRRKISPNKCSSDEWLRVMETAHSLNMPTTATMMFGHVESDGDIVEHLIKIRELQEKTGGFTAFIPWTFQPGNTELYAEIKRPVSPLRYLQVLAISRIVLNNFRNIQASWLTQGFEIATLSLFFGANDFGGTMLEENVVRATGKDFRPAKIEEIVKAVKAVGRPVALRDTYYNILEWF | not soluble |
| MNSTNSGPPDSGSATGVVPTPDEIASLLQVEHLLDQRWPETRIDPSLTRISALMDLLGSPQRSYPSIHIAGTNGKTSVARMVDALVTALHRRTGRTTSPHLQSPVERISIDGKPISPAQYVATYREIEPLVALIDQQSQASAGKGGPAMSKFEVLTAMAFAAFADAPVDVAVVEVGMGGRWDATNVINAPVAVITPISIDHVDYLGADIAGIAGEKAGIITRAPDGSPDTVAVIGRQVPKVMEVLLAESVRADASVAREDSEFAVLRRQIAVGGQVLQLQGLGGVYSDIYLPLHGEHQAHNAVLALASVEAFFGAGAQRQLDGDAVRAGFAAVTSPGRLERMRSAPTVFIDAAHNPAGASALAQTLAHEFDFRFLVGVLSVLGDKDVDGILAALEPVFDSVVVTHNGSPRALDVEALALAAGERFGPDRVRTAENLRDAIDVATSLVDDAAADPDVAGDAFSRTGIVITGSVVTAGAARTLFGRDPQ | soluble |
| MNTAHGSDVTRPLDWLVSNFASDVPGVSHAVLVSADGLLMAASAHLPIDRAEQLAAVTSGLASLSAGVSRLFEGGGVLQSVVEMQHGYLLLMSVGDGSHLATLTDAECDIGQVGYEMAILVDRVGASVQATARTPQGL | not soluble |
| MNTHYVGPVLYTPKENVSEKLLKLFDADQPIIFCYTARFYDNVGESGKAIFDNMIKIADKIDASIIISTGNKKDELLALDIASKELKSGKVSIVDYVPLDMAYEKSDLVIHHGGHGSCLAQFYYGVPSVIIPTHTEREYNARMCEKLHVGKMLPRRELNSANLKNCINDVLNDITYKKSVRDWKEKVSGLEHHHHHH | not soluble |
| MNTISILSTTDLPAAWQIEQRAHAFPWSEKTFFGNQGERYLNLKLTADDRMAAFAITQVVLDEATLFNIAVDPDFQRRGLGRMLLEHLIDELETRGVVTLWLEVRASNAAAIALYESLGFNEATIRRNYYPTAQGHEDAIIMALPISMKLHHHHHHHHHH | soluble |
| MNTKPKTIATSSTLELPKLHFQYDNTTTTFTEEEKLIDLKPTSEANYVKFWYNIVRNTYSQTHTNGSPVKPYLVANIERTIDTRLGEVFLHKKERSEHWASIAWFFNIDVKGKLVEKIIIRMSGIEELILNSGTTQIGENLNLISKSTRIPIEQNLTIDNPQLEVFYIMALWTISLDARAFKADLEDGINSESFSVEVFWKSKQDHNQTTISI | not soluble |
| MNTSLFKQERQKYIPKLPNILKKDFNNISLVYGENTEAIQDRQALKEFFKNTYGLPIISFTEGESSLSFSKALNIGIILSGGPAPGGHNVISGVFDAIKKFNPNSKLFGFKGGPLGLLENDKIELTESLINSYRNTGGFDIVSSGRTKIETEEHYNKALFVAKENNLNAIIIIGGDDSNTNAAILAEYFKKNGENIQVIGVPKTIDADLRNDHIEISFGFDSATKIYSELIGNLCRDAMSTKKYWHFVKLMGRSASHVALECALKTHPNICIVSEEVLAKKKTLSEIIDEMVSVILKRSLNGDNFGVVIVPEGLIEFIPEVKSLMLELCDIFDKNEGEFKGLNIEKMKEIFVAKLSDYMKGVYLSLPLFIQFELIKSILERDPHGNFNVSRVPTEKLFIEMIQSRLNDMKKRGEYKGSFTPVDHFFGYEGRSAFPSNFDSDYCYSLGYNAVVLILNGLTGYMSCIKNLNLKPTDWIAGGVPLTMLMNMEERYGEKKPVIKKALVDLEGRPFKEFVKNRDKWALNNLYLYPGPVQYFGSSEIVDEITETLKLELFK | soluble |
| MNTTPLVIGAYAALPATRADQETFYDRLHADLEATGLELPFRDSIHDDPAWLASQLAGRFTDSIITAIPGTMMRVWDGGTFGLASPDDDGRNAAIAFTRSIIDSARALDDAAGHRVIAGIHIHSAPSVTANRDQFLRSLTELLEGMDNDDPRLIIEHCDRYNEAVTGEKRFLSIEQEIAIAKETGIGITVNWGRSAMEAYDTQLPARHIQALVAEGVFEGVMFSGAGDKENTFGAAWADLHLPHHVDEPASLMDDDRIAECLSAAGGAQKYHGAKIQAPADVDVATRVTMLGHITRHLR | soluble |
| MNVFAFSISGGGSERSYKETEKTSAMTTTHSTKLQPSQAILFKMREDAPPLNLTEEMPPPFPTKANYLIHPVRLEHHHHHH | not soluble |
| MNVGIKGFGAYAPEKIIDNAYFEQFLDTSDEWISKMTGIKERHWADDDQDTSDLAYEASVKAIADAGIQPEDIDMIIVATATGDMPFPTVANMLQERLGTGKVASMDQLAACSGFMYSMITAKQYVQSGDYHNILVVGADKLSKITDLTDRSTAVLFGDGAGAVIIGEVSEGRGIISYEMGSDGTGGKHLYLDKDTGKLKMNGREVFKFAVRIMGDASTRVVEKANLTSDDIDLFIPHQANIRIMESARERLGISKDKMSVSVNKYGNTSAASIPLSIDQELKNGKLKDDDTIVLVGFGGGLTWGAMTIKWGK | soluble |
| MNVRITKKMVRELLEVLDEIVEEIRQEEKEKYPYAEWERKREIVKERLRKLPKYVREAVSAIRIEKRVGRPKKVDLEKRVMLFLFARLINKSNRDVEELLELFEPLFGIRVSYKTIERLYSDEEVRMALHNLFILLLKDEGVSGEFSGDGTGYSLAITKHYRSNPKKKGKDFRYVFRIIDLETGMYVGFGYSAKSEKDAFEKAMKMLKSMGVKVNSISLDKYYSTRKTLRMFDAETSVYVIPKRNLSRIGFDWLRVIERIVEMPYRFLKRYFKRNLSEAGFSADKRRFGWLIRQRREDRREMALFAVGLWHNIFAVRVMR | not soluble |
| MNVTEITQLARDIRVATLKSLNHLGFGHYGGSMSVVETLAVLYGAVMKIDPADPDWPERDYFVLSKGHAGPALYSTLAIKGYFPREELNTLNQNGTRLPSHPDRLKTRGVDATTGSLGQGISIAGGMALSHKLARRPNRVFCIVGDGELNEGQCWEAFQFIAHHRLNNLTVFIDWNKQQLDGELEEIINPFDLEGKFRAFGFDVVTVKGDDIAGLLAVVQPVPPADAQPRVVILDSIKGQGVPCLEQLTNSHHLRLTDGMKQTLNEAIHQLEVMHD | not soluble |
| MNVVQVEYLNVAEIKALLNSTISKLNPRYTSNYMIVTAILTGARLSEIAGLTWNDINFNFNTININKSYDYFAKSFKPTKNKSSNRIIKINNTLCDVLKELRTNNTDLVFKNKRGLIPTSNAVNKALRARLEELNINRRNFHFHSLRHSHVAFLLSQGIDIYPIAQRLGHSDITTTTRTYAYLIEEYKDKNDAIIIAGLDKLEHHHHHH | not soluble |
| MNVWSKLLTALRGGANEAGEALVDSQALRILDQEIRDADQELRKSKEALAEIMARQKLAAERANGSAAKIAEYESYALKALEAGNEALAQEVAQKIANLENDLAVEREQADGFAASVAQLRKAVTQAEGNIKHLKQQVDTVKATESVQKAQQAVAQRYGGSQSKLHTAVESLERIKQKQAERAAKMDAAAELANTSSPDDALDAKLREAGIVAGSTSADSVLARLKDRSKSLEHHHHHH | not soluble |
| MNWRAASAPPRSSPGLTSTCSRAAHWRDRGGAAAHAVLANVPQGRTLRDDAADLGWKPNHKFKGKLILTAPDAMPVDLNGVTITIAGPLQDELQALQDMHDQWLRQRKADPTRPPASAMLAAFVDKSVPNLSSIVLLAECGGKTMLLTGDARGDKIIEGLETTGKLAKDETLHVDILKVPHHGSDNNMETSFFERVTADHYVFSGNGDYGNPERATLQMLLDARGVAEDFTIHLTYPIEEIDAGREADWVKQQAKEAGRAKPPKGGVRPDWSAEEQGLVAFFANNPELAAHLIDLLDKAVVLEHHHHHH | not soluble |
